How the values were obtained:
poly(glu,tyr) [1] = assay: Csk kinase assay, transfer of 32P from γ-32P-ATP to poly(glu,tyr); type: biochemical
Experimental: In each of the two ligation reactions, the crude product mixture was nearly free of unligated material, although both preparations were contaminated with GroEL and DnaK. Although yields were not optimized, an estimated 0.5 mg of ligation product per 2.5 L bacterial cell culture was produced. […] Kinase assays were performed as described by Cole et al., J. Biol. Chem. 269, 30880 (1994) where transfer of ^32P from γ-^32P-ATP to poly(glu,tyr) was monitored. Briefly, poly(glu,tyr) reactions were carried out in 60 mM Tris-HCl, pH 7.4, 2 mM MnCl2, 10 mM dithiothreitol, 200 μg/mL BSA for 2 minutes at 30° C., quenched with EDTA, run out on 10% SDSPAGE and phosphopoly(glu,tyr) analyzed by scintillation counting. […] Further characterization of (Csk^PEP) and (Csk^pPEP) by electrospray mass spectrometry gave molecular masses in good agreement with the predicted values (FIG. 2C).

poly(glu,tyr) [2] = molecular target: T1, poly(glu,tyr) (Homo sapiens, UniProt P41240); settings: wild type Csk, reference (32), cited from earlier work
T1 construct: N-terminal methionine residue in the protein produced as an intein-CBD fusion was completely removed (no such cleavage is observed); Tyr unphosphorylated in Csk^PEP, phosphorylated in Csk^pPEP; made in house; host or cells: E. coli DH5α, co-expressed with GroES/GroEL

[3] = molecular target: T2, consolidated ligand NH2-PVpYENVG6>(PPAYPPPPVPKCONH2) (Homo sapiens, UniProt P00519, C100A/N120G/S121C); assay: Fluorescence-based titration binding assay; settings: consolidated ligand binding both SH3 and SH2 domains; read-out: equilibration dissociation constant (Kd) for binding to the ligand
T2 construct: intein-CBD (on the SH3 segment, removed on thioester formation) (C, cleaved yes); GST-SH3-IEGR (upstream of the SH2 segment, removed by thrombin and Factor Xa) (N, cleaved yes); made in house; host or cells: E. coli (BL21 for SH3-intein-CBD, DH5-α for the GST fusion that gives SH2)
Description: Under these conditions, no protein precipitation was observed and NMR analysis indicated the sample had adopted a native fold. A similar strategy was therefore used to prepare the complete [SH2-^15N]SH(32) construct for functional and structural analysis. The binding affinity of Abl-[SH2^15N]SH(32) for the consolidated ligand, NH2-PVpYENVG6>(PPAYPPPPVPKCONH2) (SEQ ID NOs: 5 and 6, respectively), which binds both the SH3 and the SH2 domains simultaneously (78) was studied using a fluorescence-based titration assay. (The C-terminal glycyl residue is linked to the N ε of lysyl in the second peptide segment). […] This affinity is characteristic of the dual domain construct.
Fluorescence Binding Assay: The equilibrium dissociation constants of the protein constructs for the consolidated ligand were determined using the previously describedfluorescence-based titration assay (78). The binding constant for the segment labeled construct was 300 (±100) nM. Experiments were performed on a Spex Fluorolog-3 spectrophotometer fitted with a Neslab temperature control unit.

B1: wild type Csk: Full-length wild-type human C-terminal Src kinase, 50 kDa protein (protein, UniProt P41240 1-450, looked up)
chain: MSAIQAAWPSGTECIAKYNFHGTAEQDLPFCKGDVLTIVAVTKDPNWYKAKNKVGREGIIPANYVQKREGVKAGTKLSLMPWFHGKITREQAERLLYPPETGLFLVRESTNYPGDYTLCVSCDGKVEHYRIMYHASKLSIDEEVYFENLMQLVEHYTSDADGLCTRLIKPKVMEGTVAAQDEFYRSGWALNMKELKLLQTIGKGEFGDVMLGDYRGNKVAVKCIKNDATAQAFLAEASVMTQLRHSNLVQLLGVIVEEKGGLYIVTEYMAKGSLVDYLRSRGRSVLGGDCLLKFSLDVCEAMEYLEGNNFVHRDLAARNVLVSEDNVAKVSDFGLTKEASSTQDTGKLPVKWTAPEALREKKFSTKSDVWSFGILLWEIYSFGRVPYPRIPLKDVVPRVEKGYKMDAPDGCPPAVYEVMKNCWHLDAAMRPSFLQLREQLEHIKTHELHL
modifications: full-length
notes: Full-length wild-type human C-terminal Src kinase, 50 kDa protein
For B1, the “catalytic activity (kinase assay)” value (poly(glu,tyr) [1]) is listed as “fully active”, the “Km of poly(glu,tyr)” value (poly(glu,tyr) [2]) is listed as 48 ± 2 µg/mL and the kcat (poly(glu,tyr) [2]) is listed as 0.667 ± 0.083 s⁻¹. For the same molecule, the Km (poly(glu,tyr) [2]; read-out: Km of ATP) was 12 ± 1 µM.

B2: Abl-[SH2^15N]SH(32): Ligated human Abl SH3-SH2 domain pair with G120 C121 mutations, only the SH2 domain 15N labeled (SEQ ID NO: 1) (protein)
chain: MLFVALYDFVASGDNTLSITKGEKLRVLGYNHNGEWAEAQTKNGQGWVPSNYITPVGCLEKHSWYHGPVSRNAAEYLLSSGINGSFLVRESESSPGQRSISLRYEGRVYHYRINTASDGKLYVSSESRFNTLAELVHHHSTVADGLITTLHYPAPKRGIHRD
modifications: 15N label on SH2 domain
Work on B2 yielded a Kd [3] of 300 nM.

Reference: US6875594B2, “Methods of ligating expressed proteins” (The Rockefeller University, priority 1997, dated 2005)
